# Source: patent EP1073891B1, “METHOD OF PREDICTING RECEPTOR MODULATING ACTIVITY” (Duke University, priority 1998, dated 1999)
# What was measured:
# Assay type in all cases: cell-based
# ERα = biological target: T1, ERα (Homo sapiens, UniProt P03372); test: Disruption of ERα transcriptional activity by peptide-Gal4DBD fusions, 3xERELuc reporter in HeLa cells (Examples 101.4, 101.7)
# T1 sequence (P03372 1-595): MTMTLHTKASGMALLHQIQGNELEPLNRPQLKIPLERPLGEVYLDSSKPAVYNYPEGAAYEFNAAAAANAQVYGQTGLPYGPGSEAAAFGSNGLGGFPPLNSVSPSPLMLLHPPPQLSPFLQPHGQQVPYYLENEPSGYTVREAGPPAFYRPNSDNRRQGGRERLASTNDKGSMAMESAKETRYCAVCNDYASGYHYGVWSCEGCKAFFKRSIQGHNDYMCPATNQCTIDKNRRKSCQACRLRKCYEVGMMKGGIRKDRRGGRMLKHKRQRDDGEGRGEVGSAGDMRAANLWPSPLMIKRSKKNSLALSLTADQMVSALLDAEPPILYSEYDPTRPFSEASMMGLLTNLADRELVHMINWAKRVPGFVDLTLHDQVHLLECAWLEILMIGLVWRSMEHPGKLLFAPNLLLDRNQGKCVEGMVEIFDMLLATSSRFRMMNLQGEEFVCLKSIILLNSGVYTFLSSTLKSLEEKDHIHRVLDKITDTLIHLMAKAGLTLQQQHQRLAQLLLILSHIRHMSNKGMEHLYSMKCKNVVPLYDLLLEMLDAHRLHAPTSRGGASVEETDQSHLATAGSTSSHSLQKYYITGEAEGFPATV
# Protocol: HeLa cells were transfected with ERα expression plasmid (RST7ERα), 3xERELuc reporter, pCMVβgal along with different peptide-Gal4DBD fusion constructs. pM is the Gal4DBD control without peptide fusion. Luciferase activity was measured and normalized (Fig. 16). The ability of different peptides to disrupt ERα transcriptional activity correlates with the affinity of these peptides to ERα as measured in mammalian two-hybrid assays in [Figure 15(A)]. […] Two copies of LXXLL motifs interact synergistically to disrupt ER transcriptional activity. 2XF6: two copies of F6 peptide was constructed in tandem with a 54-amino acid spacing linker that has the same sequence as in that in between GRIP-1 NR box II and NR box III. F6G:Ga14DBD-F6 fusion with only one copy of F6 peptide plus the linker. Transient transfection was performed in HeLa cells with 3xERELuc, RST7ERα, pCMVβgal and increasing amount of Gal4DBD-peptide fusion constructs as indicated in the X-axis.
# (§1) It contains the LXXLL motif. […] HeLa cells were transfected with either ERα or ERβ expression plasmids along with 3xERELuc reporter, pCMVβgal and peptide-DBD fusion constructs as indicated.
# ERβ [1] = biological target: T2, ERβ (Homo sapiens, UniProt Q92731); test: Mammalian two-hybrid of LXXLL peptides with nuclear receptors (Example 101.6); parameters: Full length receptors and selected peptides were expressed as VP16 and Gal4 DBD fusions, respectively; expressed in transfected cells; settings: mammalian two-hybrid receptor panel
# From the text: (§2) Plasmids: All the Gal4DBD-peptide fusions were constructed as follows: DNA sequences code for the peptides were excised from mBAX vector with Xhol and Xbal restriction enzymes and subcloned into pMsx vector derived from pM vector (Clontech) with a linker sequence to generate infram Sall and Nhel sites for cloning. VP16ER-a construct was generated by polymerase chain reaction (PCR) of full length human ER-α cDNA with primers containing ECoRI flanking both 5' and 3' ends. […]
# (§3) The interactions between different LXXLL motifs and different nuclear receptors were assayed in a mammalian two-hybrid system (Fig. 18). Full length receptors and selected peptides were expressed as VP16 and Gal4 DBD fusions, respectively. The strength of the interactions was measured by the activity of the 5xGa14Luc3 reporter gene. […]
# Target sequence in this assay (Q92731 whole entry, species assumed, the tested form may be a part): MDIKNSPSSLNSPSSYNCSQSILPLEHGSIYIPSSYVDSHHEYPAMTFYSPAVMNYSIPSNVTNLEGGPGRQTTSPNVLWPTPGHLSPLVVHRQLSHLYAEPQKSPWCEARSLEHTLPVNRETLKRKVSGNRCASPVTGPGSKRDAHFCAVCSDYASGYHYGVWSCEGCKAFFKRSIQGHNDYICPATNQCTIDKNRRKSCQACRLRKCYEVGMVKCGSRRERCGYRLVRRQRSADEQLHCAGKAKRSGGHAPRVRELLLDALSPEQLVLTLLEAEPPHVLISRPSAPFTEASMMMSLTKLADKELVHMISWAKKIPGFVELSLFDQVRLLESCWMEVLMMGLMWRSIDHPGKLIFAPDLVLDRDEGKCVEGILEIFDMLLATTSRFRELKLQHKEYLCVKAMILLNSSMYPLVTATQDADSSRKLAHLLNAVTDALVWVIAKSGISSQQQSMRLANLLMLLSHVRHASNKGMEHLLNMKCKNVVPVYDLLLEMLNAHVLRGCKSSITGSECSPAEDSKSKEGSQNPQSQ
# RAR = biological target: T3, RAR (Homo sapiens, UniProt P10276); test: as above; settings: mammalian two-hybrid receptor panel
# T3 construct: Full length receptors and selected peptides were expressed as VP16 and Gal4 DBD fusions, respectively; expressed in transfected cells; host or cells: mammalian cells
# T3 sequence (P10276 1-462): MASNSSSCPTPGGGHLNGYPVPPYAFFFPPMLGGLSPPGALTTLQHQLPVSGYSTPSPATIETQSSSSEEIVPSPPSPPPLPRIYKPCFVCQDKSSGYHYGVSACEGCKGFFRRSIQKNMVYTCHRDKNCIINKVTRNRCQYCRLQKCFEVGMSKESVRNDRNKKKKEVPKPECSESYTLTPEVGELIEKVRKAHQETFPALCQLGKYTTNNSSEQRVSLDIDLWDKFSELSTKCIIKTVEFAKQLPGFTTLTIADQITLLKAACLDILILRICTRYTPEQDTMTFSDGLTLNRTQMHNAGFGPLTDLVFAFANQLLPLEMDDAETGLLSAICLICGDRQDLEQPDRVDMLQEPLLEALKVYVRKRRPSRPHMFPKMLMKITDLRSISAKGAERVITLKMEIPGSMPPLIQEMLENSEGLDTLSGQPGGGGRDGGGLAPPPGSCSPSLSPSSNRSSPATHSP
# From the text: as §2, §3
# TR = biological target: T4, TR (Homo sapiens, UniProt P10828); test: as above; settings: mammalian two-hybrid receptor panel
# T4 construct: Full length receptors and selected peptides were expressed as VP16 and Gal4 DBD fusions, respectively; expressed in transfected cells; host or cells: mammalian cells; the plasmid was a gift (D.D. More, Baylor College of Medicine)
# T4 sequence (P10828 1-461): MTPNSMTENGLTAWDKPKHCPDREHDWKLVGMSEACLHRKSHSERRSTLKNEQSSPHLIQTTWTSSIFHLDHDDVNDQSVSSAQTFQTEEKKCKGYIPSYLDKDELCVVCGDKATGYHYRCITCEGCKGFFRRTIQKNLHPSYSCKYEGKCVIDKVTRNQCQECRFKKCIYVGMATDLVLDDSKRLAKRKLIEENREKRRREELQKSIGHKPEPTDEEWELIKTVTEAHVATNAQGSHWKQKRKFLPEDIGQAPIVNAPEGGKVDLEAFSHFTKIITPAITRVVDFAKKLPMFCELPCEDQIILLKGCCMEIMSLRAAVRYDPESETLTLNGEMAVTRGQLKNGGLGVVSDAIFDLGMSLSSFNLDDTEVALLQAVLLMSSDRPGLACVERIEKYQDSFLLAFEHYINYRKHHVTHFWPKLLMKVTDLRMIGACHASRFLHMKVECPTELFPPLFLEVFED
# From the text: as §2, §3
# ERβ [2] = biological target: T2, ERβ; test: Disruption of ERβ transcriptional activation by peptide-DBD fusions, 3xERELuc reporter in HeLa cells (Example 101.7); settings: 17β-estradiol
# From the text: as §1
# Target sequence in this assay (Q92731 whole entry, the tested form may be a part): as the sequence (Q92731 whole entry, species assumed, the tested form may be a part) above
sequence,measurement,setting,value
SSIKDFPNLISLLSR [Peptide #293],disruption of ERα transcriptional activity,ERα,did not interfere
same,interaction with ERβ,ERβ [1],selective interactions
same,interaction with RARα,RAR,selective interactions
same,interaction with TRβ,TR,selective interactions
same,disruption of the transcriptional activation by ERβ,ERβ [2],strongly disrupted
